{
  "source": "patent US20110311550A1",
  "test_in_all_cases": "ELISA, lectin-captured E1E2 lysate, Ab 1 ug/ml",
  "key": {"[1]": {"biological_target": "E1E2 complex (H77) with E2 mutation T425A (HCV genotype 1a, isolate H77) (UniProt P27958)"}, "[2]": {"biological_target": "E1E2 complex (H77) with E1 mutation P244A (HCV genotype 1a, isolate H77) (UniProt P27958)"}, "[3]": {"biological_target": "E1E2 complex (H77) with E1 mutation A319G (HCV genotype 1a, isolate H77) (UniProt P27958)"}, "[4]": {"biological_target": "E1E2 complex (H77) with E1 mutation Y276A (HCV genotype 1a, isolate H77) (UniProt P27958)"}, "[5]": {"biological_target": "E1E2 complex (H77) with E1 mutation G311A (HCV genotype 1a, isolate H77) (UniProt P27958)"}, "[6]": {"biological_target": "E1E2 complex (H77) with E1 mutation I212A (HCV genotype 1a, isolate H77) (UniProt P27958)"}, "[7]": {"biological_target": "E1E2 complex (H77) with E1 mutation V227A (HCV genotype 1a, isolate H77) (UniProt P27958)"}, "[8]": {"biological_target": "E1E2 complex (H77) with E1 mutation R259A (HCV genotype 1a, isolate H77) (UniProt P27958)"}, "[9]": {"biological_target": "E1E2 complex (H77) with E2 mutation N623A (HCV genotype 1a, isolate H77) (UniProt P27958)"}, "[10]": {"biological_target": "E1E2 complex (H77) with E1 mutation G225A (HCV genotype 1a, isolate H77) (UniProt P27958)"}, "[11]": {"biological_target": "E1E2 complex (H77) with E2 mutation G635A (HCV genotype 1a, isolate H77) (UniProt P27958)"}, "[12]": {"biological_target": "E1E2 complex (H77) with E2 mutation R630A (HCV genotype 1a, isolate H77) (UniProt P27958)"}, "[13]": {"biological_target": "E1E2 complex (H77) with E1 mutation S198A (HCV genotype 1a, isolate H77) (UniProt P27958)"}, "[14]": {"biological_target": "E1E2 complex (H77) with E2 mutation N448A (HCV genotype 1a, isolate H77) (UniProt P27958)"}, "[15]": {"biological_target": "E1E2 complex (H77) with E2 mutation N428A (HCV genotype 1a, isolate H77) (UniProt P27958)"}, "[16]": {"biological_target": "E1E2 complex (H77) with E1 mutation T204A (HCV genotype 1a, isolate H77) (UniProt P27958)"}, "[17]": {"biological_target": "E1E2 complex (H77) with E1 mutation N205A (HCV genotype 1a, isolate H77) (UniProt P27958)"}, "[18]": {"biological_target": "E1E2 complex (H77) with E2 mutation A643G (HCV genotype 1a, isolate H77) (UniProt P27958)"}, "[19]": {"biological_target": "E1E2 complex (H77) with E1 mutation L221A (HCV genotype 1a, isolate H77) (UniProt P27958)"}, "[20]": {"biological_target": "E1E2 complex (H77) with E1 mutation N325A (HCV genotype 1a, isolate H77) (UniProt P27958)"}, "[21]": {"biological_target": "E1E2 complex (H77) with E1 mutation N196A/N325A (HCV genotype 1a, isolate H77) (UniProt P27958)"}, "[22]": {"biological_target": "E1E2 complex (H77) with E2 mutation F447A (HCV genotype 1a, isolate H77) (UniProt P27958)"}, "[23]": {"biological_target": "E1E2 complex (H77) with E1 mutation H261A (HCV genotype 1a, isolate H77) (UniProt P27958)"}, "[24]": {"biological_target": "E1E2 complex (H77) with E2 mutation Y443A (HCV genotype 1a, isolate H77) (UniProt P27958)"}, "[25]": {"biological_target": "E1E2 complex (H77) with E1 mutation S294A (HCV genotype 1a, isolate H77) (UniProt P27958)"}, "[26]": {"biological_target": "E1E2 complex (H77) with E1 mutation N305A/N234A (HCV genotype 1a, isolate H77) (UniProt P27958)"}, "[27]": {"biological_target": "E1E2 complex (H77) with E2 mutation P619A (HCV genotype 1a, isolate H77) (UniProt P27958)"}, "[28]": {"biological_target": "E1E2 complex (H77) with E1 mutation N196A (HCV genotype 1a, isolate H77) (UniProt P27958)"}, "[29]": {"biological_target": "E1E2 complex (H77) with E2 mutation L441A (HCV genotype 1a, isolate H77) (UniProt P27958)"}},
  "data": [
    {"substance": "mouse anti-E1 MAb A4 (antibody)", "values": [
      {"measurement": "Binding relative to wt (%)", "setting": "[1]", "result": 104, "unit": "%"},
      {"measurement": "Binding relative to wt (%)", "setting": "[2]", "result": 85, "unit": "%"},
      {"measurement": "Binding relative to wt (%)", "setting": "[3]", "result": 101, "unit": "%"},
      {"measurement": "Binding relative to wt (%)", "setting": "[4]", "result": 82, "unit": "%"},
      {"measurement": "Binding relative to wt (%)", "setting": "[5]", "result": 89, "unit": "%"},
      {"measurement": "Binding relative to wt (%)", "setting": "[6]", "result": 125, "unit": "%"},
      {"measurement": "Binding relative to wt (%)", "setting": "[7]", "result": 150, "unit": "%"},
      {"measurement": "Binding relative to wt (%)", "setting": "[8]", "result": 97, "unit": "%"},
      {"measurement": "Binding relative to wt (%)", "setting": "[9]", "result": 116, "unit": "%"},
      {"measurement": "Binding relative to wt (%)", "setting": "[10]", "result": 106, "unit": "%"},
      {"measurement": "Binding relative to wt (%)", "setting": "[11]", "result": 109, "unit": "%"},
      {"measurement": "Binding relative to wt (%)", "setting": "[12]", "result": 106, "unit": "%"},
      {"measurement": "Binding relative to wt (%)", "setting": "[13]", "result": 61, "unit": "%"},
      {"measurement": "Binding relative to wt (%)", "setting": "[14]", "result": 97, "unit": "%"},
      {"measurement": "Binding relative to wt (%)", "setting": "[15]", "result": 127, "unit": "%"},
      {"measurement": "Binding relative to wt (%)", "setting": "[16]", "result": 102, "unit": "%"},
      {"measurement": "Binding relative to wt (%)", "setting": "[17]", "result": 96, "unit": "%"},
      {"measurement": "Binding relative to wt (%)", "setting": "[18]", "result": 131, "unit": "%"},
      {"measurement": "Binding relative to wt (%)", "setting": "[19]", "result": 104, "unit": "%"},
      {"measurement": "Binding relative to wt (%)", "setting": "[20]", "result": 83, "unit": "%"},
      {"measurement": "Binding relative to wt (%)", "setting": "[21]", "result": 64, "unit": "%"},
      {"measurement": "Binding relative to wt (%)", "setting": "[22]", "result": 98, "unit": "%"},
      {"measurement": "Binding relative to wt (%)", "setting": "[23]", "result": 96, "unit": "%"},
      {"measurement": "Binding relative to wt (%)", "setting": "[24]", "result": 28, "unit": "%"},
      {"measurement": "Binding relative to wt (%)", "setting": "[25]", "result": 99, "unit": "%"},
      {"measurement": "Binding relative to wt (%)", "setting": "[26]", "result": 109, "unit": "%"},
      {"measurement": "Binding relative to wt (%)", "setting": "[27]", "result": 108, "unit": "%"},
      {"measurement": "Binding relative to wt (%)", "setting": "[28]", "result": 45, "unit": "%"},
      {"measurement": "Binding relative to wt (%)", "setting": "[29]", "result": 111, "unit": "%"}
    ]}
  ]
}
